Earlier results on one substance are cited in publication PMC3393814.

The series addresses Nrf2 14mer peptide (Homo sapiens). Put plainly: ITC. In general terms: Isothermal titration calorimetry measures the heat released or taken up as one component is titrated into another.

On to Keap1 (from UniProt Q14145), for which the dissociation constant Kd (usually a measure of binding affinity in units of concentration) is 20 nM.
